Consider two molecules from US20190015361A1 (published 2019).

Test [1] deals with T1, Aβ42 (t=24 days) (human, UniProt P05067 672-713).
T1 construct: domain: Aβ42 (residues 1-42 of the Aβ peptide); enriched in high-MW oligomers by CE; also called Aβ42 high-MW oligomers
Description: SPRi, Aβ spotted on chip at 20 µM, LL-37 injected 1-100 µM, nonlinear fit of response at equilibrium.

Test [2] addresses T1, Aβ42 (t=24 days). Description: SPRi, Aβ forms spotted on chip, ovalbumin injected.
For a further test, the target named is T2, Aβ42 (t=0 days) (human, UniProt P05067 672-713).
T2 construct: domain: Aβ42 (residues 1-42 of the Aβ peptide); HFIP / CH3CN-Na2CO3-NaOH preparation, diluted to 20 µM in phosphate buffer and spotted on the SPRi chip immediately; mainly low-MW oligomers by CE; also called Aβ42 low-MW oligomers
T2 sequence (P05067 672-713 limits assumed): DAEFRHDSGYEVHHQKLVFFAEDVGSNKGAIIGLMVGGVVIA
The test can be described thus: SPRi, Aβ forms spotted on chip, ovalbumin injected.

In a further test the target is T3, Aβ40 (t=0 days) (UniProt P05067 672-711).
T3 construct: domain: Aβ40; Dissolved in PBS and spotted at 20 µM on the SPRi chip immediately after solubilization; mainly low-MW oligomers by CE; also called Aβ40 low-MW oligomers; Aβ40 solubilized in PBS
T3 sequence (P05067 672-711 limits assumed): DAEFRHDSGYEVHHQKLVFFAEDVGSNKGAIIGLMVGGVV
The test can be described thus: SPRi, Aβ forms spotted on chip, ovalbumin injected.

T1 sequence (P05067 672-713 limits assumed): as the sequence (P05067 672-713 limits assumed) above

B1: human cathelicidin peptide LL-37 (peptide, UniProt P49913 134-170, looked up)
peptide: LLGDFFRKSKEKIGKEFKRIVQRIKDFLRNLVPRTES
notes: range 134-170; Synthetic peptide; from Innovagen for SPRi/TEM/CD, from AnaSpec for the cell culture work; also called cathelicidin LL-37
Consider B1, for which, in the test with Aβ42 (t=24 days) [1], the Ka stood at 49200 M⁻¹ and the affinity, expressed as Kd, was 20.3 µM.

B2: Ovalbumin (Sigma-Aldrich, A5503) (other, UniProt P01012 2-386, looked up)
chain: GSIGAASMEFCFDVFKELKVHHANENIFYCPIAIMSALAMVYLGAKDSTRTQINKVVRFDKLPGFGDSIEAQCGTSVNVHSSLRDILNQITKPNDVYSFSLASRLYAEERYPILPEYLQCVKELYRGGLEPINFQTAADQARELINSWVESQTNGIIRNVLQPSSVDSQTAMVLVNAIVFKGLWEKAFKDEDTQAMPFRVTEQESKPVQMMYQIGLFRVASMASEKMKILELPFASGTMSMLVLLPDEVSGLEQLESIINFEKLTEWTSSNVMEERKIKVYLPRMKMEEKYNLTSVLMAMGITDVFSSSANLSGISSAESLKISQAVHAAHAEINEAGREVVGSAEAGVDAASVSEEFRADHPFLFCIKHIATNAVLFFGRCVSP
notes: Negative control analyte in SPRi, injected at 10 µM; also called non-correlated protein; negative control sample
For the molecule B2, the binding result with Aβ42 (t=24 days) [2], in the test with Aβ42 (t=0 days) and with Aβ40 (t=0 days) was “no binding (tested: 10 µM)” in each case.
